# Experimental data taken from patent publication US20210371498A1, “MHC CLASS I COMPOSITIONS AND METHODS” (priority 2020, published 2021).
# Target: T1, HLA-A*02:01 (Homo sapiens, UniProt P04439, D140Y/D185E/D98H/E176V/E277Q/G131W/G231S/I119V/I121R/I166T/I218V/L300P/L318F/N151K/N90K/P208A/P217A/Q86G/Q94H/R138H/R169H/T345S)
# T1 construct: Plasmid DNA encoding the BirA tagged luminal domain of MHC-I heavy chains HLA-A*02:01; made in house; Drosophila S2 cells (TAPBPR); gTAX synthetic (Genscript)
# Assay: not given
# Type: binding
# Conditions: not given
row,Sequence,Tm [°C]
1,TLMNVLTLV [Peptide 15],61.2 ± 0.6
2,VVFLHVTYV [Peptide 17],52.3 ± 0.0
3,TLACFVLAAV [Peptide 12],53.3 ± 0.6

# Same assay, conditions: p/HLA-A*02:01 prepared by TAPBPR-mediated peptide exchange, 10-fold molar excess of peptide, overnight 4° C.; DSF first derivative; ± SD of 3 replicates
row,Sequence,Tm [°C]
1,ILLNKHIDA [Peptide 16],43.4 ± 0.0
2,LLLQYGSFC [Peptide 31],47.3 ± 0.6
3,GLMWLSYFI [Peptide 6],41.4 ± 7.9
4,SIIAYTMSL [Peptide 14],53.3 ± 0.6
5,IITTDNTFV [Peptide 24],42.4 ± 0.6
6,WLMWLIINL [Peptide 9],42.4 ± 4.0
7,VLNDILSRL [Peptide 2],50.3 ± 0.0
8,LQLPQGTTL [Peptide 28],44.4 ± 1.1
9,ALNTLVKQL [Peptide 1],48.3 ± 0.6
10,LLLLDRLNQL [Peptide 22],42.4 ± 0.6
11,SMWALIISV [Peptide 25],52.3 ± 0.6
12,ILLLDQALV [Peptide 10],52.3 ± 0.0
13,LALLLLDRL [Peptide 27],43.3 ± 1.5
14,TTLPKGFYA [Peptide 32],46.3 ± 0.6
15,VLQLPQGTTL [Peptide 21],39.4 ± 0.0
16,KLPDDFTGCV [Peptide 13],53.3 ± 0.0
17,LLLDRLNQL [Peptide 7],54.3 ± 0.6
18,LITGRLQSL [Peptide 29],44.4 ± 0.6
19,ALNTPKDHI [Peptide 26],44.4 ± 0.6
20,RLNEVAKNL [Peptide 3],46.3 ± 0.6
21,SLPGVFCGV [Peptide 11],59.3 ± 0.0
22,NLNESLIDL [Peptide 4],47.3 ± 0.6
23,GMSRIGMEV [Peptide 8],48.3 ± 0.0
24,GLIAIVMVTI [Peptide 23],40.4 ± 0.6

# Target: T2, gTAX/HLA-A*02:01 (Homo sapiens, UniProt P04439, D140Y/D185E/D98H/E176V/E277Q/G131W/G231S/I119V/I121R/I166T/I218V/L300P/L318F/N151K/N90K/P208A/P217A/Q86G/Q94H/R138H/R169H/T345S)
# T2 construct: Plasmid DNA encoding the luminal domain of class I MHC (MHC-I) heavy chain HLA-A*02:01; made in house; Drosophila S2 cells (TAPBPR); gTAX synthetic (Genscript)
# Assay: Native gel electrophoresis of TAPBPR-catalysed peptide exchange on gTAX/HLA-A*02:01 (Example 1)
# Type: biochemical
# Conditions: overnight incubation, 10-fold molar excess of peptide, with TAPBPR
row,Sequence,peptide exchange on gTAX/HLA-A*02:01 (native gel)
1,"YPNVNIHNF [non-specific peptide, non-specific gp29 peptide used as a negative control]",no exchange was observed

# Target: T1, HLA-A*02:01
# Assay: not given
# Type: binding
# Conditions: p*MHC-I/gTAX incubated with peptide and TAPBPR, 12% native gel
row,Sequence,band of exchanged pMHC-I on native gel
1,"YPNVNIHNF [non-specific peptide, non-specific gp29 peptide used as a negative control]",no condensed band
